Results published in patent US20110263454A1, “Methods of Identifying Functional Characteristics of Promoters, Transcription Modifying Proteins and Transcription Modulating Agents” (Salk Institute for Biological Studies, priority 2008, published 2011).

B1: RXRg: Retinoic X Receptor γ (NR2B3), cDNA driver (protein, UniProt P48443 1-463, looked up)
Retinoic acid receptor …: MYGNYSHFMKFPAGYGGSPGHTGSTSMSPSAALSTGKPMDSHPSYTDTPVSAPRTLSAVGTPLNALGSPYRVITSAMGPPSGALAAPPGINLVAPPSSQLNVVNSVSSSEDIKPLPGLPGIGNMNYPSTSPGSLVKHICAICGDRSSGKHYGVYSCEGCKGFFKRTIRKDLIYTCRDNKDCLIDKRQRNRCQYCRYQKCLVMGMKREAVQEERQRSRERAESEAECATSGHEDMPVERILEAELAVEPKTESYGDMNMENSTNDPVTNICHAADKQLFTLVEWAKRIPHFSDLTLEDQVILLRAGWNELLIASFSHRSVSVQDGILLATGLHVHRSSAHSAGVGSIFDRVLTELVSKMKDMQMDKSELGCLRAIVLFNPDAKGLSNPSEVETLREKVYATLEAYTKQKYPEQPGRFAKLLLRLPALRSIGLKCLEHLFFFKLIGDTPIDTFLMEMLETPLQIT
B2: PPARd: Peroxisome proliferator activated receptor δ (NR1C2), cDNA driver (protein, UniProt Q03181 1-441, looked up)
Peroxisome …: MEQPQEEAPEVREEEEKEEVAEAEGAPELNGGPQHALPSSSYTDLSRSSSPPSLLDQLQMGCDGASCGSLNMECRVCGDKASGFHYGVHACEGCKGFFRRTIRMKLEYEKCERSCKIQKKNRNKCQYCRFQKCLALGMSHNAIRFGRMPEAEKRKLVAGLTANEGSQYNPQVADLKAFSKHIYNAYLKNFNMTKKKARSILTGKASHTAPFVIHDIETLWQAEKGLVWKQLVNGLPPYKEISVHVFYRCQCTTVETVRELTEFAKSIPSFSSLFLNDQVTLLKYGVHEAIFAMLASIVNKDGLLVANGSGFVTREFLRSLRKPFSDIIEPKFEFAVKFNALELDDSDLALFIAAIILCGDRPGLMNVPRVEAIQDTILRALEFHLQANHPDAQYLFPKLLQKMADLRQLVTEHAQMMQRIKKTETETSLHPLLQEIYKDMY
B3: RXRb: Retinoic X Receptor β (NR2B2), cDNA driver (protein, UniProt P28702 1-533, looked up)
Retinoic acid receptor …: MSWAARPPFLPQRHAAGQCGPVGVRKEMHCGVASRWRRRRPWLDPAAAAAAAVAGGEQQTPEPEPGEAGRDGMGDSGRDSRSPDSSSPNPLPQGVPPPSPPGPPLPPSTAPSLGGSGAPPPPPMPPPPLGSPFPVISSSMGSPGLPPPAPPGFSGPVSSPQINSTVSLPGGGSGPPEDVKPPVLGVRGLHCPPPPGGPGAGKRLCAICGDRSSGKHYGVYSCEGCKGFFKRTIRKDLTYSCRDNKDCTVDKRQRNRCQYCRYQKCLATGMKREAVQEERQRGKDKDGDGEGAGGAPEEMPVDRILEAELAVEQKSDQGVEGPGGTGGSGSSPNDPVTNICQAADKQLFTLVEWAKRIPHFSSLPLDDQVILLRAGWNELLIASFSHRSIDVRDGILLATGLHVHRNSAHSAGVGAIFDRVLTELVSKMRDMRMDKTELGCLRAIILFNPDAKGLSNPSEVEVLREKVYASLETYCKQKYPEQQGRFAKLLLRLPALRSIGLKCLEHLFFFKLIGDTPIDTFLMEMLEAPHQLA
B4: CAR: Constitutive Androstane Receptor (NR1I3), cDNA driver (protein, UniProt Q14994 1-352, looked up)
Nuclear receptor subfamily 1 …: MASREDELRNCVVCGDQATGYHFNALTCEGCKGFFRRTVSKSIGPTCPFAGSCEVSKTQRRHCPACRLQKCLDAGMRKDMILSAEALALRRAKQAQRRAQQTPVQLSKEQEELIRTLLGAHTRHMGTMFEQFVQFRPPAHLFIHHQPLPTLAPVLPLVTHFADINTFMVLQVIKFTKDLPVFRSLPIEDQISLLKGAAVEICHIVLNTTFCLQTQNFLCGPLRYTIEDGARVSPTVGFQVEFLELLFHFHGTLRKLQLQEPEYVLLAAMALFSPDRPGVTQRDEIDQLQEEMALTLQSYIKGQQRRPRDRFLYAKLLGLLAELRSINEAYGYQIQHIQGLSAMMPLLQEICS
B5: FXR: Farnesoid X Receptor (NR1H4), cDNA driver (protein, UniProt Q96RI1 1-486, looked up)
Bile acid receptor: MVMQFQGLENPIQISPHCSCTPSGFFMEMMSMKPAKGVLTEQVAGPLGQNLEVEPYSQYSNVQFPQVQPQISSSSYYSNLGFYPQQPEEWYSPGIYELRRMPAETLYQGETEVAEMPVTKKPRMGASAGRIKGDELCVVCGDRASGYHYNALTCEGCKGFFRRSITKNAVYKCKNGGNCVMDMYMRRKCQECRLRKCKEMGMLAECMYTGLLTEIQCKSKRLRKNVKQHADQTVNEDSEGRDLRQVTSTTKSCREKTELTPDQQTLLHFIMDSYNKQRMPQEITNKILKEEFSAEENFLILTEMATNHVQVLVEFTKKLPGFQTLDHEDQIALLKGSAVEAMFLRSAEIFNKKLPSGHSDLLEERIRNSGISDEYITPMFSFYKSIGELKMTQEEYALLTAIVILSPDRQYIKDREAVEKLQEPLLDVLQKLCKIHQPENPQHFACLLGRLTELRTFNHHHAEMLMSWRVNDHKFTPLLCEIWDVQ
B6: PXR: Pregnane X Receptor (NR1I2), cDNA driver (protein, UniProt O75469 1-434, looked up)
Nuclear receptor subfamily 1 …: MEVRPKESWNHADFVHCEDTESVPGKPSVNADEEVGGPQICRVCGDKATGYHFNVMTCEGCKGFFRRAMKRNARLRCPFRKGACEITRKTRRQCQACRLRKCLESGMKKEMIMSDEAVEERRALIKRKKSERTGTQPLGVQGLTEEQRMMIRELMDAQMKTFDTTFSHFKNFRLPGVLSSGCELPESLQAPSREEAAKWSQVRKDLCSLKVSLQLRGEDGSVWNYKPPADSGGKEIFSLLPHMADMSTYMFKGIISFAKVISYFRDLPIEDQISLLKGAAFELCQLRFNTVFNAETGTWECGRLSYCLEDTAGGFQQLLLEPMLKFHYMLKKLQLHEEEYVLMQAISLFSPDRPGVLQHRVVDQLQEQFAITLKSYIECNRPQPAHRFLFLKIMAMLTELRSINAQHTQRLLRIQDIHPFATPLMQELFGITGS

Tests used:
hMDR1 promoter = test: NHR-promoter luciferase screen, hMDR1 promoter; assay type: cell-based, human; conditions: for Luc. act., normalized to lacZ / Normalized Luc. act., normalized to control: MDR1 promoter, HR/ligand component; for hMDR1 promoter reporter activity: transcription factor +/- ligand, control = 1.00
Method in brief: (§1)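 CV-1 cells were co-transfected with 50 ng NHR (homodimer or NHR/RXR heterodimer), 100 ng promoter-luciferase construct and 50 ng LacZ. Luciferase was normalized to LacZ and to a no-NHR/no-ligand control.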

mPOMC promoter = test: NHR-promoter luciferase screen, mPOMC promoter; assay type: cell-based, mouse; conditions: for Results of assays of transcription factor (+/- ligand) with mPOMC: Table 6d, luciferase activity relative to control (control = 1.00); for Luc. act., normalized to lacZ / Normalized Luc. act., normalized to control: mPOMC promoter, HR component with or without ligand; for Normalized Luc. act., normalized to control: relative to control
Method in brief: as §1

Bmal1 promoter = test: NHR-promoter luciferase screen, Bmal1 promoter; assay type: cell-based, mouse; conditions: for Luc. act., normalized to lacZ / Normalized Luc. act., normalized to control: Bmal1 promoter, HR component without or with ligand; for mBmal1 promoter reporter activity: transcription factor +/- ligand, control = 1.00
Method in brief: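 CV-1 cells co-transfected with 50 ng NHR (V5H6-tagged, pcDNA3.1; homodimer or RXR heterodimer), 100 ng Bmal1 promoter-luciferase and 50 ng LacZ. Luciferase was normalized to LacZ and to a no-NHR/ligand control.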

mLeptin promoter = test: NHR-promoter luciferase screen, mLeptin promoter; assay type: cell-based, mouse; conditions: for Luc. act., normalized to lacZ / Normalized Luc. act., normalized to control: Table 7, mLeptin; for Results of assays of transcription factor (+/- ligand) with mLeptin: Table 6d, luciferase activity relative to control (control = 1.00)
Method in brief: as §1

RevErba promoter = test: NHR-promoter luciferase screen, RevErba (RVRa) promoter; assay type: cell-based; set-up: key to mRevErba promoter reporter activity / Normalized Luc. act., normalized to control: luciferase activity normalized to lacZ and to control (no NHR/ligand); conditions: for Luc. act., normalized to lacZ / Normalized Luc. act., normalized to control / negative reciprocal of normalized Luc. act. (fold repression; Table 33) / normalized Luc. act. on a logarithmic scale (column without head, Table 33): RVRa promoter; for Luc. act., normalized to lacZ / Normalized Luc. act., normalized to control: HR component without or with ligand; for negative reciprocal of normalized Luc. act. (fold repression; Table 33): given only where activity is below control; for normalized Luc. act. on a logarithmic scale (column without head, Table 33): log10 of activity normalized to control; for mRevErba promoter reporter activity: transcription factor +/- ligand, control = 1.00
Method in brief: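 CV-1 cells co-transfected with NHR (pcDNA3.1, C-terminal V5H6 tag) as homodimer or RXR heterodimer, RevErbα promoter–luciferase reporter and LacZ transfection control; ligand added where applicable. Luciferase normalized to LacZ and to no-NHR/no-ligand control.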

Molecule | Luc. act., normalized to lacZ (hMDR1 promoter) | Normalized Luc. act., normalized to control (hMDR1 promoter) | hMDR1 promoter reporter activity (hMDR1 promoter) | Results of assays of transcription factor (+/- ligand) with mPOMC (mPOMC promoter) | Luc. act., normalized to lacZ (mPOMC promoter) | Normalized Luc. act., normalized to control (mPOMC promoter) | Luc. act., normalized to lacZ (Bmal1 promoter) | Normalized Luc. act., normalized to control (Bmal1 promoter) | mBmal1 promoter reporter activity (Bmal1 promoter) | Luc. act., normalized to lacZ (mLeptin promoter) | Normalized Luc. act., normalized to control (mLeptin promoter) | Results of assays of transcription factor (+/- ligand) with mLeptin (mLeptin promoter) | Luc. act., normalized to lacZ (RevErba promoter) | Normalized Luc. act., normalized to control (RevErba promoter) | negative reciprocal of normalized Luc. act. (fold repression; Table 33) (RevErba promoter) | normalized Luc. act. on a logarithmic scale (column without head, Table 33) (RevErba promoter) | mRevErba promoter reporter activity (RevErba promoter)
B1 | 0.2 | 0.7 | 0.65 | 1.06 | 73.2 | 1.1 | 12.7 | 0.8 | 0.81 | 2.1 | 0.7 | 0.70 | 24.64 | 0.9 | −1.135 | −0.05 | 0.88
B2 | 0.3 | 0.9 | 0.90 | 1.02 | 70.0 | 1.0 | 11.2 | 0.7 | 0.72 | 2.6 | 0.9 | 0.89 | 25.3 | 0.9 | −1.106 | −0.04 | 0.90
B3 | 0.1 | 0.3 | 0.28 | 1.19 | 81.8 | 1.2 | 12.5 | 0.8 | 0.80 | 1.5 | 0.5 | 0.50 | 17.38 | 0.6 | −1.609 | −0.21 | 0.62
B4 | 0.2 | 0.7 | 0.68 | 0.92 | 63.8 | 0.9 | 16.4 | 1.1 | 1.05 | 2.7 | 0.9 | 0.93 | 40.00 | 1.4 | – | 0.16 | 1.43
B5 | 0.2 | 0.6 | 0.61 | 1.20 | 82.5 | 1.2 | 15.6 | 1.0 | 1.00 | 2.8 | 0.9 | 0.95 | 31.7 | 1.1 | – | 0.05 | 1.13
B6 | 0.3 | 1.1 | 1.10 | 1.30 | 89.4 | 1.3 | 31.2 | 2.0 | 2.00 | 4.1 | 1.4 | 1.40 | 42.5 | 1.5 | – | 0.18 | 1.52
